# According to US20170137467A1 (CHROMOTEK, published 2017):
# T1: BC2T K4V (human)
# T1 construct: position 4 library, row V
# T1 peptide: Ac-PDRVAAVSHWQQ-NH2
# T2: BC2T A6M (human)
# T2 construct: position 6 library (BC2TA6X), row M
# T2 peptide: Ac-PDRKAMVSHWQQ-NH2
# T3: BC2T K4A (human)
# T3 construct: position 4 library, row A
# T3 peptide: Ac-PDRAAAVSHWQQ-NH2
# T4: BC2T K4G (human)
# T4 construct: position 4 library, row G
# T4 peptide: Ac-PDRGAAVSHWQQ-NH2
# T5: BC2T R3G (human)
# T5 construct: position 3 library (BC2TR3X), row G
# T5 peptide: Ac-PDGKAAVSHWQQ-NH2
# T6: BC2T K4M (human)
# T6 construct: position 4 library, row M
# T6 peptide: Ac-PDRMAAVSHWQQ-NH2
# T7: BC2T P1V (human)
# T7 construct: position 1 library, row V
# T7 peptide: Ac-VDRKAAVSHWQQ-NH2
# T8: BC2T A5V (human)
# T8 construct: position 5 library, row V
# T8 peptide: Ac-PDRKVAVSHWQQ-NH2
# T9: BC2T D2V (human)
# T9 construct: position 2 library, row V
# T9 peptide: Ac-PVRKAAVSHWQQ-NH2
# T10: BC2T V7G (human)
# T10 construct: position 7 library, row G
# T10 peptide: Ac-PDRKAAGSHWQQ-NH2
# T11: BC2T D2A (human)
# T11 construct: position 2 library, row A
# T11 peptide: Ac-PARKAAVSHWQQ-NH2
# T12: BC2T D2G (human)
# T12 construct: position 2 library, row G
# T12 peptide: Ac-PGRKAAVSHWQQ-NH2
# Assays:
# Assay in all cases: library pulldown, LC-MS of supernatant; ratio vs GFP-Nb control (0=captured, 1=not captured)
# BC2T K4V = biological target: T1, BC2T K4V
# From the text: (§1) In total, 12 different BC2T libraries displaying all 20 proteinogenic amino acids in one single position of the peptide were used in immunoprecipitation experiments. […] The direct comparison with the GFP-Nb made it possible to determine the quantitative degree of peptide capture without the need of labeled standards. […] The more peptide was captured the more the value approximates 0. It was not possible to discriminate between isoleucine (I) and leucine (L) peptide versions since these peptides are isobaric.
# (§2) To investigate the binding specificity of the BC2T and derived mutants peptide libraries for each amino acid position of the sequence […] (SEQ ID NO:4) were synthesized with acetyl and amide groups located at the N-termini or C-termini respectively (Intavis). […] Incubations were performed in 300 μl PBS/0.01% CHAPS for 1 h on a HulaMixer (Life Technologies). Subsequent to a centrifugation step 10 μl supernatant were analyzed in a LC-MS procedure. Peptides were separated using an UltiMate3000 RSLCnano System (Thermo Scientific), composed of a C18 PepMap100μ-Precolumn (300 μm×5 mm; particle size: 5 μm; pore size: 100 Å—Thermo Scientific) and a C18 analytical column (Acclaim Rapid Separation LC (RSLC) Column: 150 mm×5 mm; particle size: 2.2 μm; pore size: 100 Å—Thermo Scientific). A step gradient was applied starting at 8% and ending after 20 min at 30% eluent B (80% acetonitrile, 20% H₂O, 0.1% formic acid).
# BC2T A6M = biological target: T2, BC2T A6M
# From the text: as §1, §2
# BC2T A5(I/L1) = biological target: T13, BC2T A5(I/L1)
# T13 construct: position 5 library, row I/L1
# From the text: as §1, §2
# BC2T A5(I/L2) = biological target: T14, BC2T A5(I/L2)
# T14 construct: position 5 library, row I/L2
# From the text: as §1, §2
# BC2T R3(I/L2) = biological target: T15, BC2T R3(I/L2)
# T15 construct: position 3 library (BC2TR3X), row I/L2
# From the text: as §1, §2
# BC2T P1(I/L2) = biological target: T16, BC2T P1(I/L2)
# T16 construct: position 1 library, row I/L2
# From the text: as §1, §2
# BC2T K4A = biological target: T3, BC2T K4A
# From the text: as §1, §2
# BC2T K4G = biological target: T4, BC2T K4G
# From the text: as §1, §2
# BC2T R3G = biological target: T5, BC2T R3G
# From the text: as §1, §2
# BC2T K4M = biological target: T6, BC2T K4M
# From the text: as §1, §2
# BC2T V7(I/L1) = biological target: T17, BC2T V7(I/L1)
# T17 construct: position 7 library, row I/L1
# From the text: as §1, §2
# BC2T D2(I/L2) = biological target: T18, BC2T D2(I/L2)
# T18 construct: position 2 library, row I/L2
# From the text: as §1, §2
# BC2T P1V = biological target: T7, BC2T P1V
# From the text: as §1, §2
# BC2T A5V = biological target: T8, BC2T A5V
# From the text: as §1, §2
# BC2T A6(I/L2) = biological target: T19, BC2T A6(I/L2)
# T19 construct: position 6 library (BC2TA6X), row I/L2
# From the text: as §1, §2
# BC2T D2V = biological target: T9, BC2T D2V
# From the text: as §1, §2
# BC2T P1(I/L1) = biological target: T20, BC2T P1(I/L1)
# T20 construct: position 1 library, row I/L1
# From the text: as §1, §2
# BC2T D2(I/L1) = biological target: T21, BC2T D2(I/L1)
# T21 construct: position 2 library, row I/L1
# From the text: as §1, §2
# BC2T V7G = biological target: T10, BC2T V7G
# From the text: as §1, §2
# BC2T A6(I/L1) = biological target: T22, BC2T A6(I/L1)
# T22 construct: position 6 library (BC2TA6X), row I/L1
# From the text: as §1, §2
# BC2T D2A = biological target: T11, BC2T D2A
# From the text: as §1, §2
# BC2T K4(I/L1) = biological target: T23, BC2T K4(I/L1)
# T23 construct: position 4 library, row I/L1
# From the text: as §1, §2
# BC2T D2G = biological target: T12, BC2T D2G
# From the text: as §1, §2
ratio (BC2T K4V),ratio (BC2T A6M),ratio (BC2T A5(I/L1)),ratio (BC2T A5(I/L2)),ratio (BC2T R3(I/L2)),ratio (BC2T P1(I/L2)),ratio (BC2T K4A),ratio (BC2T K4G),ratio (BC2T R3G),ratio (BC2T K4M),ratio (BC2T V7(I/L1)),ratio (BC2T D2(I/L2)),ratio (BC2T P1V),ratio (BC2T A5V),ratio (BC2T A6(I/L2)),ratio (BC2T D2V),ratio (BC2T P1(I/L1)),ratio (BC2T D2(I/L1)),ratio (BC2T V7G),ratio (BC2T A6(I/L1)),Binder,further results
0.1,1,0.1,0.1,0.5,0.3,0.2,0.6,0.9,0.1,0.1,0.2,0.2,0.1,0.9,0.1,0.4,0.1,0.7,0.7,"BC2 nanobody (BC2-Nb) (VHH, immobilised on agarose/sepharose beads in this assay; also called BC2 nanotrap (immobilised form); not shown: C-terminal 6xHis-tag added by pHEN6 vector) VHH: QVQLVESGGGLVQPGGSLTLSCTASGFTLDHYDIGWFRQAPGKEREGVSCINNSDDDTYYADSVKGRFTIFMDNAKDTVYLQMNSLKPEDTAIYYCAEARGCKRGRYEYDFWGQGTQVTVSS",ratio (BC2T D2A): 0.2; ratio (BC2T K4(I/L1)): 0.1; ratio (BC2T D2G): 0.3
0.1,1,0.1,0.1,0.9,0.5,0.4,0.9,1,0.3,0.1,0.2,0.3,0.1,0.8,0.1,0.6,0.1,0.7,0.7,"BC2-NbR106E (VHH, immobilised on beads in this assay; not shown: C-terminal 6xHis-tag added by pHEN6 vector) VHH: QVQLVESGGGLVQPGGSLTLSCTASGFTLDHYDIGWFRQAPGKEREGVSCINNSDDDTYYADSVKGRFTIFMDNAKDTVYLQMNSLKPEDTAIYYCAEARGCKRGEYEYDFWGQGTQVTVSS",ratio (BC2T D2A): 0.2; ratio (BC2T K4(I/L1)): 0.3; ratio (BC2T D2G): 0.4
0.2,0.9,0.2,0.2,0.9,0.6,0.6,0.9,1,0.5,0.3,0.3,0.4,0.2,0.9,0.2,0.7,0.2,0.8,0.8,"BC2-NbR106S (VHH, immobilised on beads in this assay; not shown: C-terminal 6xHis-tag added by pHEN6 vector) VHH: QVQLVESGGGLVQPGGSLTLSCTASGFTLDHYDIGWFRQAPGKEREGVSCINNSDDDTYYADSVKGRFTIFMDNAKDTVYLQMNSLKPEDTAIYYCAEARGCKRGSYEYDFWGQGTQVTVSS",ratio (BC2T D2A): 0.4; ratio (BC2T K4(I/L1)): 0.4; ratio (BC2T D2G): 0.5
